Tested on: Escherichia coli TOP10
Test: shrunken log2 fold change of peptide-encoding DNA abundance (4.5 h post-induction vs induction); higher = less antimicrobial activity (less host growth inhibition)
Settings: time post-induction: 4.5 h; library: site-saturation at positions 5, 18, 19, 20
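Note: peptides expressed intracellularly from a pBAD plasmid library in pooled LB shake-flask culture, induced with 0.3% L-arabinose, DNA abundance read by NGS, three biological replicates, DESeq2 with apeglm shrinkage.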

Row | Sequence | shrunken log2 fold change
1 | RRIRDRPPRLPRPRPRPKGKPRP | 0.142
2 | RRIRDRPPRLPRPRPRPKGYPRP | -0.097
3 | RRIRDRPPRLPRPRPRPKIHPRP | -0.214
4 | RRIRDRPPRLPRPRPRPKINPRP | -0.389
5 | RRIRDRPPRLPRPRPRPKIPPRP | -0.355
6 | RRIRDRPPRLPRPRPRPKMEPRP | -0.00783
7 | RRIRDRPPRLPRPRPRPKMSPRP | -0.0119
8 | RRIRDRPPRLPRPRPRPKNLPRP | -0.0874
9 | RRIRDRPPRLPRPRPRPKPNPRP | 0.45
10 | RRIRDRPPRLPRPRPRPKPRPRP | 0.711
11 | RRIRDRPPRLPRPRPRPKPWPRP | 0.46
12 | RRIRDRPPRLPRPRPRPKRAPRP | -0.0273
13 | RRIRDRPPRLPRPRPRPKTDPRP | -0.314
14 | RRIRDRPPRLPRPRPRPKVRPRP | 0.00434
15 | RRIRDRPPRLPRPRPRPKWIPRP | -0.0438
16 | RRIRDRPPRLPRPRPRPLAIPRP | 0.0447
17 | RRIRDRPPRLPRPRPRPLAYPRP | 0.0112
18 | RRIRDRPPRLPRPRPRPLCDPRP | 0.287
19 | RRIRDRPPRLPRPRPRPLDHPRP | 0.0841
20 | RRIRDRPPRLPRPRPRPLDVPRP | -0.0992
21 | RRIRDRPPRLPRPRPRPLEKPRP | 0.0929
22 | RRIRDRPPRLPRPRPRPLFAPRP | 0.65
23 | RRIRDRPPRLPRPRPRPLHFPRP | -0.0881
24 | RRIRDRPPRLPRPRPRPLHRPRP | -0.375
25 | RRIRDRPPRLPRPRPRPLHWPRP | -0.124
26 | RRIRDRPPRLPRPRPRPLIDPRP | 0.0319
27 | RRIRDRPPRLPRPRPRPLIEPRP | 0.573
28 | RRIRDRPPRLPRPRPRPLLNPRP | 0.124

Row | Sequence | shrunken log2 fold change
29 | RRIRDRPPRLPRPRPRPLMLPRP | 0.116
30 | RRIRDRPPRLPRPRPRPLNAPRP | -0.0226
31 | RRIRDRPPRLPRPRPRPLNQPRP | -0.009
32 | RRIRDRPPRLPRPRPRPLNWPRP | 0.0327
33 | RRIRDRPPRLPRPRPRPLNYPRP | -0.372
34 | RRIRDRPPRLPRPRPRPLPLPRP | -0.0937
35 | RRIRDRPPRLPRPRPRPLQGPRP | 0.287
36 | RRIRDRPPRLPRPRPRPLSIPRP | -0.0668
37 | RRIRDRPPRLPRPRPRPLTNPRP | -0.19
38 | RRIRDRPPRLPRPRPRPLVLPRP | 0.176
39 | RRIRDRPPRLPRPRPRPLYKPRP | 0.00521
40 | RRIRDRPPRLPRPRPRPMAPPRP | 0.982
41 | RRIRDRPPRLPRPRPRPMCCPRP | 0.0249
42 | RRIRDRPPRLPRPRPRPMCEPRP | -0.0122
43 | RRIRDRPPRLPRPRPRPMCKPRP | 0.108
44 | RRIRDRPPRLPRPRPRPMCWPRP | 0.564
45 | RRIRDRPPRLPRPRPRPMDVPRP | -0.0846
46 | RRIRDRPPRLPRPRPRPMDWPRP | 0.0545
47 | RRIRDRPPRLPRPRPRPMFRPRP | -0.114
48 | RRIRDRPPRLPRPRPRPMGEPRP | -6.53e-05
49 | RRIRDRPPRLPRPRPRPMHDPRP | 0.122
50 | RRIRDRPPRLPRPRPRPMHYPRP | 0.0552
51 | RRIRDRPPRLPRPRPRPMLDPRP | -0.0254
52 | RRIRDRPPRLPRPRPRPMLHPRP | 0.202
53 | RRIRDRPPRLPRPRPRPMMEPRP | 0.0314
54 | RRIRDRPPRLPRPRPRPMMHPRP | 0.937
55 | RRIRDRPPRLPRPRPRPMNHPRP | -0.513

Source: the supplement of paper PMC9112550, “Optimization of the antimicrobial peptide Bac7 by deep mutational scanning” (BMC Biology, 2022)
